Target: T1, YFP-DAT, Q01959
T1 chain: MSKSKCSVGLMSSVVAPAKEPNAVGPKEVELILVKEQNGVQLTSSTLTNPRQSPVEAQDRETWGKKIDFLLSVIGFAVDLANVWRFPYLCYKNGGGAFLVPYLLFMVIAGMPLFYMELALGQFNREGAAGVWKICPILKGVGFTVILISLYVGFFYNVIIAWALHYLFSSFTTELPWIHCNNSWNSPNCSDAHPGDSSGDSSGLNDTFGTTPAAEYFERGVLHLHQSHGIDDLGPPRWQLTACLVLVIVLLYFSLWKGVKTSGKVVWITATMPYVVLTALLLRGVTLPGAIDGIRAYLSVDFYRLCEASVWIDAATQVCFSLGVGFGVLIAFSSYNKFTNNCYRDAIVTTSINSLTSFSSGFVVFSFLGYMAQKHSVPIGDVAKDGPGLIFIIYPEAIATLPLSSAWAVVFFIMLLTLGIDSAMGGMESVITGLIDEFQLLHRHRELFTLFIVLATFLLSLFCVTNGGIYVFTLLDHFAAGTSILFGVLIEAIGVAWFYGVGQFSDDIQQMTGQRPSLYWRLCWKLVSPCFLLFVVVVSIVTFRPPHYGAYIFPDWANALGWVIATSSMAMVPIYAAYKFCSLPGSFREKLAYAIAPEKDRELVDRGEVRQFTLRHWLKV
Assay: FRET or BRET; CFP- and YFP-labelled proteins co-expressed in HEK293 cells; three-filter method, 63x oil immersion objective; FRET efficiency, n = 20-30 per group
Conditions: remark: other sources report otherwise

B1: CFP-Flot1, O75955 1-427 (natural protein)
chain: MFFTCGPNEAMVVSGFCRSPPVMVAGGRVFVLPCIQQIQRISLNTLTLNVKSEKVYTRHGVPISVTGIAQVKIQGQNKEMLAAACQMFLGKTEAEIAHIALETLEGHQRAIMAHMTVEEIYKDRQKFSEQVFKVASSDLVNMGISVVSYTLKDIHDDQDYLHSLGKARTAQVQKDARIGEAEAKRDAGIREAKAKQEKVSAQYLSEIEMAKAQRDYELKKAAYDIEVNTRRAQADLAYQLQVAKTKQQIEEQRVQVQVVERAQQVAVQEQEIARREKELEARVRKPAEAERYKLERLAEAEKSQLIMQAEAEAASVRMRGEAEAFAIGARARAEAEQMAKKAEAFQLYQEAAQLDMLLEKLPQVAEEISGPLTSANKITLVSSGSGTMGAAKVTGEVLDILTRLPESVERLTGVSISQVNHKPLRTA
  FRET efficiency: 7.62

— article PMC6392109
